B2: Srp1-6His (natural protein, S. cerevisiae, UniProt Q02821 1-542, looked up)
chain: MDNGTDSSTSKFVPEYRRTNFKNKGRFSADELRRRRDTQQVELRKAKRDEALAKRRNFIPPTDGADSDEEDESSVSADQQFYSQLQQELPQMTQQLNSDDMQEQLSATVKFRQILSREHRPPIDVVIQAGVVPRLVEFMRENQPEMLQLEAAWALTNIASGTSAQTKVVVDADAVPLFIQLLYTGSVEVKEQAIWALGNVAGDSTDYRDYVLQCNAMEPILGLFNSNKPSLIRTATWTLSNLCRGKKPQPDWSVVSQALPTLAKLIYSMDTETLVDACWAISYLSDGPQEAIQAVIDVRIPKRLVELLSHESTLVQTPALRAVGNIVTGNDLQTQVVINAGVLPALRLLLSSPKENIKKEACWTISNITAGNTEQIQAVIDANLIPPLVKLLEVAEYKTKKEACWAISNASSGGLQRPDIIRYLVSQGCIKPLCDLLEIADNRIIEVTLDALENILKMGEADKEARGLNINENADFIEKAGGMEKIFNCQQNENDKIYEKAYKIIETYFGEEEDAVDETMAPQNAGNTFGFGSNVNQQFNFN
notes: Srp1 (Kap60, karyopherin-alpha), S. cerevisiae; pET42b-based plasmid; also called karyopherin-α; Kap60; source: also co-expressed with GST-Sts1 in E. coli extract; not shown: 6His, C-terminal, kept

In test [1] the target is T1, GST-cleaved Kap95 (S. cerevisiae, UniProt Q06142 1-861).
T1 construct: Kap95 (karyopherin-beta), S. cerevisiae; also called purified Kap95; untagged Kap95; source: recombinant, purified, GST cleaved
T1 sequence (looked up): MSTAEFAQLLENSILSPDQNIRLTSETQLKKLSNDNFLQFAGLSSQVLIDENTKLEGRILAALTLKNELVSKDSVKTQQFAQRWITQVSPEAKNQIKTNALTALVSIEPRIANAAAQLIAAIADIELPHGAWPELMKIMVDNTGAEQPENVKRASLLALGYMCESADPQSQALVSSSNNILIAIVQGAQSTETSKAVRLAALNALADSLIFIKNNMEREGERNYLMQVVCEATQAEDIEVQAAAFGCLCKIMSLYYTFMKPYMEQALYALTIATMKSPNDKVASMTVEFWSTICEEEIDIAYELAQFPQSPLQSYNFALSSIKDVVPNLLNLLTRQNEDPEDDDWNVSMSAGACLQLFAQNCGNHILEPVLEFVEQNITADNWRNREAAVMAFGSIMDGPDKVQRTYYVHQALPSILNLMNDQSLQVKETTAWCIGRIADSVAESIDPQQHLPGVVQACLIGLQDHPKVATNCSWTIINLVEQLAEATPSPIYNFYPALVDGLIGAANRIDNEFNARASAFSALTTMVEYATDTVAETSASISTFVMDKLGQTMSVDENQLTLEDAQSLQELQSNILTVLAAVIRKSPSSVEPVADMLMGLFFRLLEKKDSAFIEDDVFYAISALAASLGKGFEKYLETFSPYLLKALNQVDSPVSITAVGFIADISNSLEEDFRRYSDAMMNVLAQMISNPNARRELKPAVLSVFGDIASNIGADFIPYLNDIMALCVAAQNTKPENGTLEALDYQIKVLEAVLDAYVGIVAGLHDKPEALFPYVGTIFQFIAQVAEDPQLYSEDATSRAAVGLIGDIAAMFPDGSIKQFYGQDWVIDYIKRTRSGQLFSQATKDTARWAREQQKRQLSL
Nature of the test: pull-down; GST-Sts1 immobilised on GSH beads, incubated with equimolar Srp1-6His and GST-cleaved Kap95, 4 °C, 2 h; PBS, 0.1% Tween-20, 0.2 mM DTT, 0.2 mM PMSF; without Ran or then with four-fold molar excess of 6His-Gsp1GDP (complex largely intact); SDS-PAGE and protein staining. The note with it: both partners purified.

Test [2] deals with B2. Described as above. Particulars: both partners purified.

B1: full-length GST-Sts1 (natural protein, S. cerevisiae, UniProt P38637 1-319, looked up)
chain: MMGFEWGFKPSSKITQSTVSSQGTGNVMIPTAGVKQKRRYANEEQEEEELPRNKNVMKYGGVSKRRPQPGSLIRGQPLPLQRGMELMNKNQLQQLLVDLMTKHPEIQQSVHTRVIGLDFSIQKCLDMLKQKSEAVYQSIPYNRSYESNKLDDYAFVRMKPQILEFLNCLVDFILDNIPPRLENLHASLKFLDICTELVIKLPRFELASNNYYYDKCIEQLSHVWCTLIEHVARDRIILLADNSSVWKSHMTRLQVYNEHSNGLLERPLQLFKSLDMGSPSAASSSTLSLQESIIYHHDTMTANENNNNSGSAATDSPFN
notes: Sts1, S. cerevisiae, full length; also called FL; not shown: GST, N-terminal, kept
Take B1: the binding result in test [1] and in test [2] was “binds” each time.

On to B2, for which the binding result in test [1] is “binds”.

The values are drawn from article PMC10808114, “Yeast 26S proteasome nuclear import is coupled to nucleus-specific degradation of the karyopherin adaptor protein Sts1” (Scientific Reports, 2024).
